Key:
[1] = target: T1, recombinant cynomolgus CD3e (22-49)-Fc2(K105-K330) (cynomolgus monkey); test: ELISA, 1 nM antigen coated, IgG titrated, anti-human F(ab')2-AP detection
T1 construct: also called cyCD3e(22-49)_Fc2(K105-K330); cyCD3 epsilon 22-49/Fc

[2] = target: T2, recombinant human CD3e (22-49)-Fc2 (K105-K330) (human); test: ELISA, 5 nM antigen coated, IgG titrated, anti-human F(ab')2-AP detection
T2 construct: also called hCD3e(22-49)_Fc2(K105-K330); hCD3 epsilon 22-49/Fc

[3] = target: T3, human CD3 expressed on cells (Jurkat cells; human lymphocytes/PBMCs) (human, UniProt P07766 23-207); test: flow cytometry on CD3 positive Jurkat cells, IgG titrated, anti-human F(ab')2-PE detection
T3 construct: on the cells it stands in the CD3/TCR complex; also called human CD3 epsilon; CD3 positive Jurkat cells

[4] = target: T4, cynomolgus CD3 expressed on cynomolgus lymphocytes/PBMCs (cynomolgus monkey, UniProt Q95LI5 22-198); test: flow cytometry on cynomolgus PBMCs (lymphocyte gate), detection with anti-human F(ab')2-PE
T4 construct: also called cynomolgus CD3 epsilon

[5] = target: Human CD3e (22-118) Flag_chLys_avi (human); test: SPR (Biacore T200), IgG captured on MabSelect SuRe, hCD3e analyte 4.1-999 nM, 1:1 fit; comment: slightly heterogeneous binding
[6] = target: Human CD3e (22-118) Flag_chLys_avi (human); test: SPR (Biacore T200), IgG captured on MabSelect SuRe, hCD3e analyte 4.1-999 nM, 1:1 fit; comment: heterogeneous binding
[7] = target: Human CD3e (22-118) Flag_chLys_avi (human); test: SPR (Biacore T200), IgG captured on MabSelect SuRe, hCD3e analyte, 1:1 fit; comment: only conc. 37-333 nM used for evaluation
[8] = target: Human CD3e (22-118) Flag_chLys_avi (human); test: SPR (Biacore T200), IgG captured on MabSelect SuRe, hCD3e analyte, 1:1 fit; comment: weak binding signals, only 333 nM & 999 nM evaluated
[9] = target: Human CD3e (22-118) Flag_chLys_avi (human); test: SPR (Biacore T200), IgG captured on MabSelect SuRe, hCD3e analyte 4.1-999 nM, 1:1 fit

T4 sequence (Q95LI5 22-198): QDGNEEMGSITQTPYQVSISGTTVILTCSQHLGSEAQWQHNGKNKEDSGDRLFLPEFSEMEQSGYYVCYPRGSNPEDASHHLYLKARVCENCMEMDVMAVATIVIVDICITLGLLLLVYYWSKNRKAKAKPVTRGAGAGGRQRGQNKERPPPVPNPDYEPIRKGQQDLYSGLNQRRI
Human CD3e (22-118) Flag_chLys_avi (human), sequence (chain, as listed by the source limits assumed): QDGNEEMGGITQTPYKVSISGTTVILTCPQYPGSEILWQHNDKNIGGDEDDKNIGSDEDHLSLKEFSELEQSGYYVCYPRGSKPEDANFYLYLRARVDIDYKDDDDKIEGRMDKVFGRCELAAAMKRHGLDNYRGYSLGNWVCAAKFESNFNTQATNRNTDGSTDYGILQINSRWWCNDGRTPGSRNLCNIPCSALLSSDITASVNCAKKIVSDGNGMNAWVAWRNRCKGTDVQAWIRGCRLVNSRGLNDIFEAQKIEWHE
T3 sequence (P07766 23-207): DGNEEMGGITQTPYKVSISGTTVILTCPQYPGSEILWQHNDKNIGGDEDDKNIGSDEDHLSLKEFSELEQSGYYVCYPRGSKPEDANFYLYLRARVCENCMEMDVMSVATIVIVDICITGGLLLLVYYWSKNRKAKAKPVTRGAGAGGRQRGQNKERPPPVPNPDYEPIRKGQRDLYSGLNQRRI

B1: mAb#München (antibody, human IgG1, lambda, V domains shown)
VH: EVQLVESGGGLVKPGGSLRLSCAASGFTFNTYAMNWVRQAPGKGLEWVGRIRSKYNNYATYYADSVKDRFTISRDDSKNTLYLQMNSLKTEDTAVYYCTTHGNFGNSYVSWFAYWGQGTLVTVSS
VL: QTVVTQEPSLTVSPGGTVTLTCRSSTGAVTTSNYANWVQQKPGQAPRGLIGGTKFLAPGTPARFSGSLLGGKAALTLLGAQPEDEAEYYCALWYSNLWVFGGGTKLTVLG
notes: also called Munchen
For B1, the EC50 [1] was 1.43 nM, the EC50 [2] was 0.6 nM and the EC50 [3] was 6.6 nM. For the same binder, the “EC50 (read off the curve)” value [4] was roughly 20 nM, the Kd [5] was 78 nM and the koff [5] was 0.00658 s⁻¹. For the same binder, the kon [5] was 84000 M⁻¹ s⁻¹.

B2: mAb#Bremen (antibody, human IgG1, lambda, V domains shown)
VH: EVQLVESGGGLVKPGGSLRLSCAASGFTFNTYAMNWVRQAPGKGLEWVGRIRSKYNNYATYYADSVKDRFTISRDDSKNTLYLQMNSLKTEDTAVYYCTTHGNFGNSYVSWFAYWGQGTLVTVSS
VL: QTVVTQEPSLTVSPGGTVTLTCRSSTGAVTTSNYANWVQQKPGQAPRGLIGGTKFLAPGTPARFSGSLLGGKAALTLSGVQPEDEAEYYCALWYSNLWVFGGGTKLTVLG
With B2 the EC50 [1] was 0.8 nM, the EC50 [2] was 1.1 nM and the EC50 [3] was 6.3 nM. For the same binder, the “EC50 (read off the curve)” value [4] was roughly 20 nM, the Kd [6] was 74 nM and the koff [6] was 0.00479 s⁻¹. The kon [6] was 65000 M⁻¹ s⁻¹.

B3: mAb#Nürnberg (antibody, human IgG1, lambda)
heavy: not shown
light: QTVVTQEPSLTVSPGGTVTLTCRSSTGAVTTSNYANWVQQKPGQAPRGLIGGTNKRAPGTPARFSGSLLGGKAALTLSGVQPEDEAEYYCALWYSNLWVFGGGTKLTVLGQPKAAPSVTLFPPSSEELQANKATLVCLISDFYPGAVTVAWKADSSPVKAGVETTTPSKQSNNKYAASSYLSLTPEQWKSHRSYSCQVTHEGSTVEKTVAPTECS
With B3 the EC50 [1] was 0.21 nM, the EC50 [2] was 0.34 nM and the EC50 [3] was 1 nM. The Kd [7] was 48 nM, the koff [7] was 0.00387 s⁻¹ and the kon [7] was 80000 M⁻¹ s⁻¹.

B4: mAb#Gladbach (antibody, human IgG1, lambda, V domains shown)
VH: QVQLVESGGGLVKPGGSLRLSCAASGFTFNTYAMNWIRQAPGKGLEWVSRIRSKYNNYATYYADSVKDRFTISRDNAKNSLYLQMNSLRAEDTAVYYCVRHGNFGNSYVSWFAYWGQGTLVTVSS
VL: QTVVTQEPSLTVSPGGTVTLTCRSSTGAVTTSNYANWVQQKPGQAPRGLIGGTKFLAPGTPARFSGSLLGGKAALTLSGVQPEDEAEYYCALWYSNLWVFGGGTKLTVLG
Binder B4 has an EC50 [1] of 0.21 nM, an EC50 [2] of 0.38 nM and an EC50 [3] of 1.4 nM. The “EC50 (read off the curve)” value [4] was roughly 6 nM, the Kd [5] was 54 nM and the koff [5] was 0.00385 s⁻¹. The kon [5] was 71800 M⁻¹ s⁻¹.

B5: mAb#Mainz (antibody, human IgG1, lambda, V domains shown)
VH: QVQLVESGGGLVKPGGSLRLSCAASGFTFNTYAMNWIRQAPGKGLEWVSRIRSKYNNYATYYADSVKDRFTISRDNAKNSLYLQMNSLRAEDTAVYYCVRHGNFGNSYVSWFAYWGQGTLVTVSS
VL: QAVVTQEPSLTVSPGGTVTLTCRSSTGAVTTSNYANWVQQKPGQAPRGLIGGTNKRAPWTPARFSGSLLGGKAALTITGAQAEDEADYYCALWYSNLWVFGGGTKLTVLG
In the case of B5, the EC50 [1] is reported as 1.53 nM, the EC50 [2] is reported as 1.21 nM and the EC50 [3] is reported as 9.4 nM. It also gave a Kd [8] of 600 nM, a koff [8] of 0.00847 s⁻¹ and a kon [8] of 14200 M⁻¹ s⁻¹.

B6: mAb#Köln (antibody, human IgG1, lambda)
heavy: not shown
light: ELVVTQEPSLTVSPGGTVTLTCRSSTGAVTTSNYANWVQQKPGQAPRGLIGGTNKRAPGTPARFSGSLLGGKAALTLSGVQPEDEAEYYCALWYSNLWVFGGGTKLTVLGQPKAAPSVTLFPPSSEELQANKATLVCLISDFYPGAVTVAWKADSSPVKAGVETTTPSKQSNNKYAASSYLSLTPEQWKSHRSYSCQVTHEGSTVEKTVAPTECS
B6 gave an EC50 [1] of 0.2 nM, an EC50 [2] of 0.31 nM and an EC50 [3] of 1.8 nM. The Kd [5] was 51 nM, the koff [5] was 0.00386 s⁻¹ and the kon [5] was 76200 M⁻¹ s⁻¹.

B7: mAb#Freiburg (antibody, human IgG1, lambda, V domains shown)
VH: EVQLVESGGGLVKPGGSLRLSCAASGFTFNTYAMNWVRQAPGKGLEWVGRIRSKYNNYATYYADSVKDRFTISRDDSKNTLYLQMNSLKTEDTAVYYCTTHGNFGNSYVSWFAYWGQGTLVTVSS
VL: QTVVTQEPSLTVSPGGTVTLTCRSSTGAVTTSNYANWVQQKPGQAPRGLIGGTNKRAPGTPARFSGSLLGGKAALTLLGAQPEDEAEYYCALWYSNLWVFGGGTKLTVLG
B7 showed an EC50 [1] of 1.26 nM, an EC50 [2] of 0.91 nM and an EC50 [3] of 10.7 nM. For the same binder, the “EC50 (read off the curve)” value [4] was roughly 10 nM, the Kd [6] was 130 nM and the koff [6] was 0.00467 s⁻¹. It also gave a kon [6] of 35200 M⁻¹ s⁻¹.

B8: SP34 (m/h chimeric) IgG (antibody, V domains shown)
VH: EVQLVESGGGLVQPKGSLKLSCAASGFTFNTYAMNWVRQAPGKGLEWVARIRSKYNNYATYYADSVKDRFTISRDDSQSILYLQMNNLKTEDTAMYYCVRHGNFGNSYVSWFAYWGQGTLVTVSS
VL: QAVVTQESALTTSPGETVTLTCRSSTGAVTTSNYANWVQEKPDHLFTGLIGGTNKRAPGVPARFSGSLIGDKAALTITGAQTEDEAIYFCALWYSNLWVFGGGTKLTVLG
notes: Murine SP34 variable domains tested as mouse/human chimeric IgG; also called SP34 IgG (m/h chimera)
For B8, the EC50 [1] was 0.15 nM, the EC50 [2] was 0.39 nM and the Kd [9] was 1.7 nM. For the same binder, the koff [9] was 0.000835 s⁻¹, the kon [9] was 487000 M⁻¹ s⁻¹ and the EC50 [3] was 1.4 nM. The “EC50 (read off the curve)” value [4] was roughly 3 nM.
